Data taken from the supplement of paper PMC11316812.
± gives the standard deviation of the averaged measurements.

Tests used:
MCF7 = test: percentage of EdU-negative (G0-arrested) nuclei per well, 72 h; higher = more G0 arrest; conditions: reference: sequence is the full UniProt precursor, the tested protein was the secreted form or ectodomain
hTERT-HMEC = test: as above; conditions: reference: sequence is the full UniProt precursor, the tested protein was the secreted form or ectodomain
[1] = protein concentration 0.0257143 µM
[2] = protein concentration 0.257143 µM
[3] = protein concentration 0.0357143 µM
[4] = protein concentration 0.357143 µM
[5] = protein concentration 0.0225 µM
[6] = protein concentration 0.03125 µM
[7] = protein concentration 0.3125 µM
[8] = protein concentration 0.01725 µM
[9] = protein concentration 0.1725 µM
[10] = protein concentration 0.0345714 µM
[11] = protein concentration 0.345714 µM
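Further: secreted proteins added to cultured cells, EdU pulse at the end, nuclei found by Hoechst imaging, EdU status from nuclear versus surrounding ring intensity ratio, PBS as neutral control.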

For “MERRAWSLQCTAFVLFCAWCALNSAKAKRQFVNEWAAEIPGGPEAASAIAEELGYDLLGQIGSLENHYLFKHKNHPRRSRRSAFHITKRLSDDDRVIWAEQQYEKERSKRSALRDSALNLFNDPMWNQQWYLQDTRMTAALPKLDLHVIPVWQKGITGKGVVITVLDDGLEWNHTDIYANYDPEASYDFNDNDHDPFPRYDPTNENKHGTRCAGEIAMQANNHKCGVGVAYNSKVGGIRMLDGIVTDAIEASSIGFNPGHVDIYSASWGPNDDGKTVEGPGRLAQKAFEYGVKQGRQGKGSIFVWASGNGGRQGDNCDCDGYTDSIYTISISSASQQGLSPWYAEKCSSTLATSYSSGDYTDQRITSADLHNDCTETHTGTSASAPLAAGIFALALEANPNLTWRDMQHLVVWTSEYDPLANNPGWKKNGAGLMVNSRFGFGLLNAKALVDLADPRTWRSVPEKKECVVKDNDFEPRALKANGEVIIEIPTRACEGQENAIKSLEHVQFEATIEYSRRGDLHVTLTSAAGTSTVLLAERERDTSPNGFKNWDFMSVHTWGENPIGTWTLRITDMSGRIQNEGRIVNWKLILHGTSSQPEHMKQPRVYTSYNTVQNDRRGVEKMVDPGEEQPTQENPKENTLVSKSPSSSSVGGRRDELEEGAPSQAMLRLLQSAFSKNSPPKQSPKKSPSAKLNIPYENFYEALEKLNKPSQLKDSEDSLYNDYVDVFYNTKPYKHRDDRLLQALVDILNEEN”, the “percentage of EdU-negative” value (MCF7; protein concentration 0.009 µM) was 25.7 ± 4%, the “percentage of EdU-negative” value (MCF7; protein concentration 0.09 µM) was 27.832 ± 0.026% and the “percentage of EdU-negative” value (hTERT-HMEC; protein concentration 0.009 µM) was 4.928 ± 0.013%. For the same sequence, the “percentage of EdU-negative” value (hTERT-HMEC; protein concentration 0.09 µM) was 7.51 ± 0.97%.

With “MERVQPLEENVGNAARPRFERNKLLLVASVIQGLGLLLCFTYICLHFSALQVSHRYPRIQSIKVQFTEYKKEKGFILTSQKEDEIMKVQNNSVIINCDGFYLISLKGYFSQEVNISLHYQKDEEPLFQLKKVRSVNSLMVASLTYKDKVYLNVTTDNTSLDDFHVNGGELILIHQNPGEFCVL” the “percentage of EdU-negative” value (MCF7; [1]) was 23.4 ± 0.97%, the “percentage of EdU-negative” value (MCF7; [2]) was 27.27 ± 0.14% and the “percentage of EdU-negative” value (hTERT-HMEC; [1]) was 5.74 ± 1.2%. The “percentage of EdU-negative” value (hTERT-HMEC; [2]) was 5.19 ± 1.2%.

“MESKGASSCRLLFCLLISATVFRPGLGWYTVNSAYGDTIIIPCRLDVPQNLMFGKWKYEKPDGSPVFIAFRSSTKKSVQYDDVPEYKDRLNLSENYTLSISNARISDEKRFVCMLVTEDNVFEAPTIVKVFKQPSKPEIVSKALFLETEQLKKLGDCISEDSYPDGNITWYRNGKVLHPLEGAVVIIFKKEMDPVTQLYTMTSTLEYKTTKADIQMPFTCSVTYYGPSGQKTIHSEQAVFDIYYPTEQVTIQVLPPKNAIKEGDNITLKCLGNGNPPPEEFLFYLPGQPEGIRSSNTYTLTDVRRNATGDYKCSLIDKKSMIASTAITVHYLDLSLNPSGEVTRQIGDALPVSCTISASRNATVVWMKDNIRLRSSPSFSSLHYQDAGNYVCETALQEVEGLKKRESLTLIVEGKPQIKMTKKTDPSGLSKTIICHVEGFPKPAIQWTITGSGSVINQTEESPYINGRYYSKIIISPEENVTLTCTAENQLERTVNSLNVSAISIPEHDEADEISDENREKVNDQAKLIVGIVVGLLLAALVAGVVYWLYMKKSKTASKHVNKDLGNMEENKKLEENNHKTEA” was tested, and the “percentage of EdU-negative” value (MCF7; [3]) was 26.8 ± 1.2%, the “percentage of EdU-negative” value (MCF7; [4]) was 25.13 ± 0.15% and the “percentage of EdU-negative” value (hTERT-HMEC; [3]) was 4.83 ± 0.2%. The “percentage of EdU-negative” value (hTERT-HMEC; [4]) was 5.08 ± 0.77%.

In the case of “MESPSAPPHRWCIPWQRLLLTASLLTFWNPPTTAKLTIESTPFNVAEGKEVLLLVHNLPQHLFGYSWYKGERVDGNRQIIGYVIGTQQATPGPAYSGREIIYPNASLLIQNIIQNDTGFYTLHVIKSDLVNEEATGQFRVYPELPKPSISSNNSKPVEDKDAVAFTCEPETQDATYLWWVNNQSLPVSPRLQLSNGNRTLTLFNVTRNDTASYKCETQNPVSARRSDSVILNVLYGPDAPTISPLNTSYRSGENLNLSCHAASNPPAQYSWFVNGTFQQSTQELFIPNITVNNSGSYTCQAHNSDTGLNRTTVTTITVYAEPPKPFITSNNSNPVEDEDAVALTCEPEIQNTTYLWWVNNQSLPVSPRLQLSNDNRTLTLLSVTRNDVGPYECGIQNELSVDHSDPVILNVLYGPDDPTISPSYTYYRPGVNLSLSCHAASNPPAQYSWLIDGNIQQHTQELFISNITEKNSGLYTCQANNSASGHSRTTVKTITVSAELPKPSISSNNSKPVEDKDAVAFTCEPEAQNTTYLWWVNGQSLPVSPRLQLSNGNRTLTLFNVTRNDARAYVCGIQNSVSANRSDPVTLDVLYGPDTPIISPPDSSYLSGANLNLSCHSASNPSPQYSWRINGIPQQHTQVLFIAKITPNNNGTYACFVSNLATGRNNSIVKSITVSASGTSPGLSAGATVGIMIGVLVGVALI”, the “percentage of EdU-negative” value (MCF7; [5]) is reported as 26.7 ± 2.2%, the “percentage of EdU-negative” value (MCF7; protein concentration 0.225 µM) is reported as 25.3 ± 0.33% and the “percentage of EdU-negative” value (hTERT-HMEC; [5]) is reported as 5.67 ± 0.092%. For the same sequence, the “percentage of EdU-negative” value (hTERT-HMEC; protein concentration 0.225 µM) was 5.42 ± 0.42%.

For “MESRGPLATSRLLLLLLLLLLRHTRQGWALRPVLPTQSAHDPPAVHLSNGPGQEPIAVMTFDLTKITKTSSSFEVRTWDPEGVIFYGDTNPKDDWFMLGLRDGRPEIQLHNHWAQLTVGAGPRLDDGRWHQVEVKMEGDSVLLEVDGEEVLRLRQVSGPLTSKRHPIMRIALGGLLFPASNLRLPLVPALDGCLRRDSWLDKQAEISASAPTSLRSCDVESNPGIFLPPGTQAEFNLRDIPQPHAEPWAFSLDLGLKQAAGSGHLLALGTPENPSWLSLHLQDQKVVLSSGSGPGLDLPLVLGLPLQLKLSMSRVVLSQGSKMKALALPPLGLAPLLNLWAKPQGRLFLGALPGEDSSTSFCLNGLWAQGQRLDVDQALNRSHEIWTHSCPQSPGNGTDASH”, the “percentage of EdU-negative” value (MCF7; [6]) was 21.8 ± 3%, the “percentage of EdU-negative” value (MCF7; [7]) was 23.55 ± 0.15% and the “percentage of EdU-negative” value (hTERT-HMEC; [6]) was 4.94 ± 0.58%. For the same sequence, the “percentage of EdU-negative” value (hTERT-HMEC; [7]) was 17.6 ± 1.6%.

For “MESRVLLRTFCLIFGLGAVWGLGVDPSLQIDVLTELELGESTTGVRQVPGLHNGTKAFLFQDTPRSIKASTATAEQFFQKLRNKHEFTILVTLKQTHLNSGVILSIHHLDHRYLELESSGHRNEVRLHYRSGSHRPHTEVFPYILADDKWHKLSLAISASHLILHIDCNKIYERVVEKPSTDLPLGTTFWLGQRNNAHGYFKGIMQDVQLLVMPQGFIAQCPDLNRTCPTCNDFHGLVQKIMELQDILAKTSAKLSRAEQRMNRLDQCYCERTCTMKGTTYREFESWIDGCKNCTCLNGTIQCETLICPNPDCPLKSALAYVDGKCCKECKSICQFQGRTYFEGERNTVYSSSGVCVLYECKDQTMKLVESSGCPALDCPESHQITLSHSCCKVCKGYDFCSERHNCMENSICRNLNDRAVCSCRDGFRALREDNAYCEDIDECAEGRHYCRENTMCVNTPGSFMCICKTGYIRIDDYSCTEHDECITNQHNCDENALCFNTVGGHNCVCKPGYTGNGTTCKAFCKDGCRNGGACIAANVCACPQGFTGPSCETDIDECSDGFVQCDSRANCINLPGWYHCECRDGYHDNGMFSPSGESCEDIDECGTGRHSCANDTICFNLDGGYDCRCPHGKNCTGDCIHDGKVKHNGQIWVLENDRCSVCSCQNGFVMCRRMVCDCENPTVDLFCCPECDPRLSSQCLHQNGETLYNSGDTWVQNCQQCRCLQGEVDCWPLPCPDVECEFSILPENECCPRCVTDPCQADTIRNDITKTCLDEMNVVRFTGSSWIKHGTECTLCQCKNGHICCSVDPQCLQEL”, the “percentage of EdU-negative” value (MCF7; [8]) was 24.4 ± 2.6%, the “percentage of EdU-negative” value (MCF7; [9]) was 28.9 ± 0.7% and the “percentage of EdU-negative” value (hTERT-HMEC; [8]) was 5.41 ± 0.14%. The “percentage of EdU-negative” value (hTERT-HMEC; [9]) was 12.7 ± 0.33%.

“MESSRVRLLPLLGAALLLMLPLLGTRAQEDAELQPRALDIYSAVDDASHEKELIEALQEVLKKLKSKRVPIYEKKYGQVPMCDAGEQCAVRKGARIGKLCDCPRGTSCNSFLLKCL” was tested, and the “percentage of EdU-negative” value (MCF7; [5]) was 28.1 ± 1.3%, the “percentage of EdU-negative” value (MCF7; protein concentration 0.225 µM) was 24.6 ± 0.93% and the “percentage of EdU-negative” value (hTERT-HMEC; [5]) was 5.12 ± 0.53%. The “percentage of EdU-negative” value (hTERT-HMEC; protein concentration 0.225 µM) was 5.36 ± 0.64%.

For “METPAWPRVPRPETAVARTLLLGWVFAQVAGASGTTNTVAAYNLTWKSTNFKTILEWEPKPVNQVYTVQISTKSGDWKSKCFYTTDTECDLTDEIVKDVKQTYLARVFSYPAGNVESTGSAGEPLYENSPEFTPYLETNLGQPTIQSFEQVGTKVNVTVEDERTLVRRNNTFLSLRDVFGKDLIYTLYYWKSSSSGKKTAKTNTNEFLIDVDKGENYCFSVQAVIPSRTVNRKSTDSPVECMGQEKGEFREIFYIIGAVVFVVIILVIILAISLHKCRKAGVGQSWKENSPLNVS”, the “percentage of EdU-negative” value (MCF7; [10]) was 24.03 ± 0.11%, the “percentage of EdU-negative” value (MCF7; [11]) was 22.3 ± 1.8% and the “percentage of EdU-negative” value (hTERT-HMEC; [10]) was 4.27 ± 0.75%. For the same sequence, the “percentage of EdU-negative” value (hTERT-HMEC; [11]) was 6.032 ± 0.015%.
